According to patent publication US20160145325A1 (AGROSAVFE N V, published 2016):

Target: T1, potato lectin (Solanum Tuberosum Lectin, Vector labs, cat#: L-1160) (Solanum tuberosum (potato), UniProt Q9S8M0 23-323)
T1 construct: Bought glycoprotein coated on ELISA wells as an unrelated control compound
T1 sequence: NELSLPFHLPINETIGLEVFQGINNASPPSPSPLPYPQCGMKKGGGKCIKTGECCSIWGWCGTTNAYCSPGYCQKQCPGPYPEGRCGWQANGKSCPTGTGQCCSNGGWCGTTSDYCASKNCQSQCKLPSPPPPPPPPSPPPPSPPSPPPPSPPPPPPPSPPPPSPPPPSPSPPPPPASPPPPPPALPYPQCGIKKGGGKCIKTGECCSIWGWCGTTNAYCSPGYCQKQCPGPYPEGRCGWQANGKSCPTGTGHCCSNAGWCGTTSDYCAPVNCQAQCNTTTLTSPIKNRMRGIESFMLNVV
Assay: ELISA, purified VHH on wells coated with potato lectin, OD 405 nm

B1: anti-GlcCer VHH 56F11 (VHH)
VHH: QVQLQESGGGLVQSGGSLRLSCVHSKTTFTRNAMGWYRQALGKERELVATITSGGTTNYADSVKGRFTISMDSAKNTVYLQMNSLKPEDTAVYYCNVNTRRIFGGTVREYWGQGTQVTVSS
notes: Llama VHH raised against fungal glucosylceramide, made in E. coli and purified through its hexahistidine tag; Tested as purified VHH at 1 ug/ml; not shown: C-terminal (His)6 and c-myc peptide tags coded by vector pASF20
binding result: no binding (tested: 1 µg/ml)

B2: anti-GlcCer VHH 41D01 (VHH)
VHH: QVQLQESGGGLVQAGGSLRLSCAASGRTFSRYGMGWFRQLPGKQRELVTSITRGGTTTYADSVKGRFTISRDNAKNTVYLQMNSLKPEDTAVYYCNARSIWRDYWGQGTQVTVSS
notes: Llama VHH raised against fungal glucosylceramide, made in E. coli and purified through its hexahistidine tag; Tested as purified VHH at 0.1 ug/ml; also called GlcCer-specific VHH 41D01; not shown: C-terminal (His)6 and c-myc peptide tags coded by vector pASF20
binding result: no binding (tested: 0.1 µg/ml)
